Data: paper PMC4259358, “Functional Characterization of Nuclear Localization and Export Signals in Hepatitis C Virus Proteins and Their Role in the Membranous Web” (PLoS ONE, 2014)

T1: recombinant IPO5 (importin β3/kap β3) (UniProt O00410-1 1-1097)
T1 sequence (looked up): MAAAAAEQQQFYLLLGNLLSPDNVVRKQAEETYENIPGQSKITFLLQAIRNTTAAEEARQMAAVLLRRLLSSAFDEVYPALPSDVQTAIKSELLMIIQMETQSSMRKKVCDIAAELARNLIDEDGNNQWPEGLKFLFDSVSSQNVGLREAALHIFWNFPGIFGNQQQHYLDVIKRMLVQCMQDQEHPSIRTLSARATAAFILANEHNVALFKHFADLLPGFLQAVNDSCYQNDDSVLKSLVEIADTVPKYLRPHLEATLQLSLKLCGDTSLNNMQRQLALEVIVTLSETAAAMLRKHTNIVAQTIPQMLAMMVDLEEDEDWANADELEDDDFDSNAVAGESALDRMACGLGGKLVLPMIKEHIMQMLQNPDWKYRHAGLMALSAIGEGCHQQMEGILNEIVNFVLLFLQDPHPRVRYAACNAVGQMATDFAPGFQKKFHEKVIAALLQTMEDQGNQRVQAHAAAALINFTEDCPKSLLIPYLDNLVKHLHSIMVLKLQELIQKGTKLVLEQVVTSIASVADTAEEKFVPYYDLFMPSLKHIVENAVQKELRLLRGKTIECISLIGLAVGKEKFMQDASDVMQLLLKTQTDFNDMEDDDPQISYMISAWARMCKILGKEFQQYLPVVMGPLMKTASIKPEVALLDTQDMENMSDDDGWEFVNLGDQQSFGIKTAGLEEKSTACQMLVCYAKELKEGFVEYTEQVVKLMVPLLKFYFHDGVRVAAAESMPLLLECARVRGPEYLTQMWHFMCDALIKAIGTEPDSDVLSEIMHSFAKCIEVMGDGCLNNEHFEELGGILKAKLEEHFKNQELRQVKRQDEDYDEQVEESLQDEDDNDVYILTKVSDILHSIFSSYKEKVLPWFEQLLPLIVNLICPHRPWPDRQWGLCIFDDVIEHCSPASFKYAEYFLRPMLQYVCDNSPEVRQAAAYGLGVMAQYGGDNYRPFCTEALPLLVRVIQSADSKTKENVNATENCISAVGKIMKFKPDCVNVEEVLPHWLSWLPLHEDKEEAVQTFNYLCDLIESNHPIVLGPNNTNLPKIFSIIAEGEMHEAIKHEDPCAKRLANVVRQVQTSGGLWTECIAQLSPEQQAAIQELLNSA


Columns and labels:
Conditions in all cases: both partners purified
[1] = biological target: T2, recombinant IPOA5 (importin α5/kap α1) (UniProt P52294 1-538); test: ELISA; plates coated with synthetic peptide (10 µg/ml, carbonate buffer pH 9.6); increasing concentrations of recombinant NTF, 2 h, room temperature; anti-HIS detection; apparent Kd
[2] = biological target: T2, recombinant IPOA5 (importin α5/kap α1); test: as above; remark: listed apart in the source
[3] = biological target: T3, recombinant XPO1 (exportin 1/CRM1) (UniProt O14980 1-1071); test: as above
[4] = biological target: T1, recombinant IPO5 (importin β3/kap β3); test: as above
[5] = biological target: T2, recombinant IPOA5 (importin α5/kap α1); test: ELISA; plates coated with recombinant HCV protein (10 µg/ml, carbonate buffer pH 9.6); recombinant NTF added, 2 h, room temperature; anti-NTF antibodies; apparent Kd
[6] = biological target: T1, recombinant IPO5 (importin β3/kap β3); test: as above
[7] = biological target: T3, recombinant XPO1 (exportin 1/CRM1); test: as above

T2 sequence (P52294 whole entry): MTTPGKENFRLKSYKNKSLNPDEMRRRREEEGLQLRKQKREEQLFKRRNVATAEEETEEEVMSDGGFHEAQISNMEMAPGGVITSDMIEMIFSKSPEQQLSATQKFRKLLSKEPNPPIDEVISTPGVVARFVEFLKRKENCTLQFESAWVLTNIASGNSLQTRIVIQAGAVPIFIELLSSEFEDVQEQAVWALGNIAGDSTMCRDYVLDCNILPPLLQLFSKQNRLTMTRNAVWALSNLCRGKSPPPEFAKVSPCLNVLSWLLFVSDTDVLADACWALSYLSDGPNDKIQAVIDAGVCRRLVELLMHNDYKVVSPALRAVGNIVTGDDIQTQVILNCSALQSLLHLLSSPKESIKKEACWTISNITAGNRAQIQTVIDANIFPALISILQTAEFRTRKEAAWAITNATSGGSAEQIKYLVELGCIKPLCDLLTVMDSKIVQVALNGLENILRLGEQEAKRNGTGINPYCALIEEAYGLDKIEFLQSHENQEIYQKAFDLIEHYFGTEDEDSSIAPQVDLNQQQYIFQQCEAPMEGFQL
T3 sequence (O14980 whole entry): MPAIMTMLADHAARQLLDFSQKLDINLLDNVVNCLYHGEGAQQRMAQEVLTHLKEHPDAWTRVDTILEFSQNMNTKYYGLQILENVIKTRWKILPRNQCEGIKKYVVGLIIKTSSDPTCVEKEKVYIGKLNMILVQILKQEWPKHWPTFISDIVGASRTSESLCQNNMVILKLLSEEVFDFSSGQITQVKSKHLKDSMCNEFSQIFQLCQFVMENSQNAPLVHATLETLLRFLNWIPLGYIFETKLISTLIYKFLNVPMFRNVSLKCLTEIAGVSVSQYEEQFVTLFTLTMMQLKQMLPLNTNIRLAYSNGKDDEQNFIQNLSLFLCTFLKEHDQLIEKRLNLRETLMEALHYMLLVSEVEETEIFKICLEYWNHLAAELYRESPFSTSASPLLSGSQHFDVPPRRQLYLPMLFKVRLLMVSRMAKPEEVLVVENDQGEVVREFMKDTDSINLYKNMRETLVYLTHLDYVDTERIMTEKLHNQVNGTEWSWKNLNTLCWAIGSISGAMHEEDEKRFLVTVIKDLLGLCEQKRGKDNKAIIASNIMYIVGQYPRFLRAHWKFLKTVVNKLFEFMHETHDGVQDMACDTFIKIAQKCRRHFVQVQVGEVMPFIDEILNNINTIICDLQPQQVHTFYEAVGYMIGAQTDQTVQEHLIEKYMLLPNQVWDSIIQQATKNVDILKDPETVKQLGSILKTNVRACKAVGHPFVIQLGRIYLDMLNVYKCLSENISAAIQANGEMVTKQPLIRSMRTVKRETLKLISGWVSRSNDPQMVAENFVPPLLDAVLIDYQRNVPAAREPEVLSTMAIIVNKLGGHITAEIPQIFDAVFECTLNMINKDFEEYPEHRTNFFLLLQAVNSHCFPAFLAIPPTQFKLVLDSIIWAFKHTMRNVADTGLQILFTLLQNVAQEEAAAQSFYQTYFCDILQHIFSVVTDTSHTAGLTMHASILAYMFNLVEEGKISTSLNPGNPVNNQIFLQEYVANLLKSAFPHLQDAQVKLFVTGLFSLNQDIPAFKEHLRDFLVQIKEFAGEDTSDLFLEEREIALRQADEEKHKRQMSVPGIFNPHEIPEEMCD

Row | Binder | Kd [2] | Kd [3] | Kd [4] | other results
1 | PIIFSPMEKKVIVWGRQIKIWFQNRRMKWKK (source: synthetic peptide (GL Biochem, HPLC >85%)) [NS2 NLS synthetic peptide (fused to penetratin)] | 0.0793 ± 0.00389 µM |  |  | Kd [1]: ~0.034 µM
2 | LQLPPLERLTLRQIKIWFQNRRMKWKK (source: synthetic peptide (GL Biochem, HPLC >85%)) [HIV-1 Rev NES synthetic peptide (fused to penetratin)] |  | 0.114 ± 0.0715 µM |  | 
3 | PKPQRKTKRNTNRRPRQIKIWFQNRRMKWKK (source: synthetic peptide (GL Biochem, HPLC >85%)) [Core NLS 1 synthetic peptide (fused to penetratin)] | 0.161 ± 0.0318 µM |  | 0.0348 ± 0.00454 µM | 
4 | KVIDTLTCGFADLMGRQIKIWFQNRRMKWKK (source: synthetic peptide (GL Biochem, HPLC >85%)) [Core NES 1 synthetic peptide (fused to penetratin)] |  | 0.0667 ± 0.0113 µM |  | 
5 | LILLTLSPHYKLFLARLIWWLQYFITRQIKIWFQNRRMKWKK (source: synthetic peptide (GL Biochem, HPLC >85%)) [NS2 NES synthetic peptide (fused to penetratin)] |  | 0.0798 ± 0.0256 µM |  | 
6 | PRRGPRLGVRRQIKIWFQNRRMKWKK (source: synthetic peptide (GL Biochem, HPLC >85%)) [Core NLS 2 synthetic peptide (fused to penetratin)] | 0.0249 ± 0.00171 µM |  | 0.0788 ± 0.00642 µM | 
7 | recombinant full-length HCV core protein (natural protein) STNPKPQRKTKRNTNRRPEDVKFPGGGQIVGGVYLLPRRGPRLGVRTTRKTSERSQPRGRRQPIPKDRRSTGKAWGKPGRPWPLYGNEGLGWAGWLLSPRGSRPSWGPTDPRHRSRNVGKVIDTLTCGFADLMGYIPVVGAPLSGAARAVAHGVRVLEDGVNYATGNLPGFPFSIFLLALLSCITVPVSA |  |  |  | Kd [5]: 0.0368 ± 0.00483 µM; Kd [6]: 0.056 ± 0.00278 µM; Kd [7]: 0.0231 ± 0.00407 µM
8 | PRGRRQPIPKDRRSTGKAWGKPRQIKIWFQNRRMKWKK (source: synthetic peptide (GL Biochem, HPLC >85%)) [Core NLS 3 synthetic peptide (fused to penetratin)] | 0.0175 ± 0.00081 µM |  | 0.0404 ± 0.00706 µM | 
9 | LPGCSFSIFLLALLSCITVPVSARQIKIWFQNRRMKWKK (source: synthetic peptide (GL Biochem, HPLC >85%)) [Core NES 2 synthetic peptide (fused to penetratin)] |  | 0.0952 ± 0.0266 µM |  | 
